B1: anti-HER3 scFv-CH3 labeled with IRDye800CW (other)
chain: SDIQMTQSPSSLSASVGDRVTITCRASQGISNYLAWYQQKPGKAPKLLIYAASSLQSGVPSRFSGSRSGTDFTLTISSLQPEDFATYYCQQYGWLPLTFGQGTKVEIKGGGGSGGGGSGGGGSEISEVQLVESGGGLVQPGGSLRLSCAASGFTFSSYGMHWVRQAPGKGLEWVAVISYDGSNKYYADSVKGRFTISRDNSKNTLYLQMNSLRAEDTAVYYCARTDPYSLGGYYFDYWGQGTLVTVSSEPKSCDKTHTCPPCPGQPREPQVYTLPPSREEMTKNQVSLTCLVKGFYPSDIAVEWESNGQPENNYKTTPPVLDSDGSFFLYSKLTVDKSRWQQGNVFSCSVMHEALHNHYTQKSLSLSPGK
notes: also called IRDye800CW-labeled scFv-CH3
B2: anti-HER3 scFv (scFv)
scFv: SDIQMTQSPSSLSASVGDRVTITCRASQGISNYLAWYQQKPGKAPKLLIYAASSLQSGVPSRFSGSRSGTDFTLTISSLQPEDFATYYCQQYGWLPLTFGQGTKVEIKGGGGSGGGGSGGGGSEISEVQLVESGGGLVQPGGSLRLSCAASGFTFSSYGMHWVRQAPGKGLEWVAVISYDGSNKYYADSVKGRFTISRDNSKNTLYLQMNSLRAEDTAVYYCARTDPYSLGGYYFDYWGQGTLVTVSS
notes: VL-(GGGGS)3-VH of HER3-3, expressed in E. coli
B3: anti-HER3 scFv labeled with IRDye800CW (scFv)
scFv: SDIQMTQSPSSLSASVGDRVTITCRASQGISNYLAWYQQKPGKAPKLLIYAASSLQSGVPSRFSGSRSGTDFTLTISSLQPEDFATYYCQQYGWLPLTFGQGTKVEIKGGGGSGGGGSGGGGSEISEVQLVESGGGLVQPGGSLRLSCAASGFTFSSYGMHWVRQAPGKGLEWVAVISYDGSNKYYADSVKGRFTISRDNSKNTLYLQMNSLRAEDTAVYYCARTDPYSLGGYYFDYWGQGTLVTVSS
modifications: IRDye800CW-NHS label, 1-2 dye molecules per fragment, sites not stated
notes: m4 labelled with IRDye800CW; also called IRDye800CW-labeled scFv
B4: anti-HER3 diabody (other)
chain: SDIQMTQSPSSLSASVGDRVTITCRASQGISNYLAWYQQKPGKAPKLLIYAASSLQSGVPSRFSGSRSGTDFTLTISSLQPEDFATYYCQQYGWLPLTFGQGTKVEIKGGGGSEISEVQLVESGGGLVQPGGSLRLSCAASGFTFSSYGMHWVRQAPGKGLEWVAVISYDGSNKYYADSVKGRFTISRDNSKNTLYLQMNSLRAEDTAVYYCARTDPYSLGGYYFDYWGQGTLVTVSS
notes: VL-GGGGS-VH of HER3-3; bivalent (51.6 kDa), expressed in E. coli
B5: anti-HER3 diabody labeled with IRDye800CW (other)
chain: SDIQMTQSPSSLSASVGDRVTITCRASQGISNYLAWYQQKPGKAPKLLIYAASSLQSGVPSRFSGSRSGTDFTLTISSLQPEDFATYYCQQYGWLPLTFGQGTKVEIKGGGGSEISEVQLVESGGGLVQPGGSLRLSCAASGFTFSSYGMHWVRQAPGKGLEWVAVISYDGSNKYYADSVKGRFTISRDNSKNTLYLQMNSLRAEDTAVYYCARTDPYSLGGYYFDYWGQGTLVTVSS
modifications: IRDye800CW-NHS label, 1-2 dye molecules per fragment, sites not stated
notes: m5 labelled with IRDye800CW; also called IRDye800CW-labeled diabody

Key:
[1] = molecular target: T1, recombinant human HER3-Fc chimera protein (R&D Systems) (human, UniProt P21860 20-643); assay: BLI, IRDye800CW-labeled antibody
T1 construct: extracellular domain; Bought from R&D Systems; also called recombinant human HER3 extracellular domain; recombinant HER3; not shown: Fc part of the purchased chimera
T1 sequence (P21860 20-643, change not shown): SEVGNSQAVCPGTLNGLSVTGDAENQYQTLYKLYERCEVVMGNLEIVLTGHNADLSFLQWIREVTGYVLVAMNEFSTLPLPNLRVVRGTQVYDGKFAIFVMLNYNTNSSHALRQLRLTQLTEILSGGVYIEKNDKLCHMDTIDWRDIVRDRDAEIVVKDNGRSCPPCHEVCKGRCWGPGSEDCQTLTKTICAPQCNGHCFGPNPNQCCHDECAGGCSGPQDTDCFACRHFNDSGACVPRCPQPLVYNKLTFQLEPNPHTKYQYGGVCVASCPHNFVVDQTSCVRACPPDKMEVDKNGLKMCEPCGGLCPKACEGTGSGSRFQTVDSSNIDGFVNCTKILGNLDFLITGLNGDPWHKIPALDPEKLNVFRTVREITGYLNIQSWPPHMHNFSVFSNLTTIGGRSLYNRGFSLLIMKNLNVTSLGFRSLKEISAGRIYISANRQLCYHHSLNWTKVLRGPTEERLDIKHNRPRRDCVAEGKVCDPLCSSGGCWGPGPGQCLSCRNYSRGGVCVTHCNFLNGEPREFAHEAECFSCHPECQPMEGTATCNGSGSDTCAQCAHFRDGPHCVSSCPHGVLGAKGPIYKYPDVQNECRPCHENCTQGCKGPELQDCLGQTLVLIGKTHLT

[2] = molecular target: HER3 (as used in the biolayer interferometry of Example 2) (UniProt P21860 20-643, limits assumed); assay: BLI
Sequence of HER3 (as used in the biolayer interferometry of Example 2) (P21860 20-643 limits assumed): as the sequence (P21860 20-643, change not shown) above

[3] = molecular target: T1, recombinant human HER3-Fc chimera …; assay: BLI (Octet Red), antibody on AR2G sensor, HER3-Fc 10-263 nM, 1:1 fit
Protocol: Binding kinetics were measured using an Octet Red instrument (ForteBio, Menlo Park, Calif.), following the manufacturer's protocol. Binding assays were performed in 96-well microtiter plates at 30° C. with sample plate orbital motion agitation at 1000 rpm. All washes, dilutions, and measurements were performed in phosphate buffered saline (PBS), pH 7.4. The IgG and antibody fragments were immobilized on amine-reactive second generation (AR2G) sensors using the manufacturer's protocol at pH 5 followed by quenching with 1 M ethanolamine, pH 8.5. […] Binding was monitored by placing sensors into wells for 5 min, followed by dissociation in PBS for 10 min. KD, kON, and kOFF were determined with ForteBio Data Analysis software v7.1.0.33 through locally fitting the processed data using a 1:1 binding model.

| Binder | Kd [1] [µM] | Kd [3] [µM] | koff [3] [s⁻¹] | kon [3] [M⁻¹ s⁻¹] | also measured |
| --- | --- | --- | --- | --- | --- |
| B1 | 0.0021 | – | – | – | – |
| B2 | – | 0.02 | 0.00054 | 33000 | Kd [2]: 0.0216 µM; koff [2]: 0.00127 s⁻¹; kon [2]: 60400 M⁻¹ s⁻¹ |
| B3 | 0.029 | – | – | – | – |
| B4 | – | 0.003 | 0.00044 | 150000 | – |
| B5 | 0.0024 | – | – | – | – |
